Assay results as given in patent publication US10877024B2, “Methods of determining interferon having direct inhibitory effects on tumors and uses thereof” (SUPERLAB FAR EAST LIMITED, priority 2015, dated 2020).

What was measured:
different cancer cells = assay: Cell viability, Am-Blue assay, 48 hr, statements over all cell lines; assay type: cell-based, human; conditions: any of the cancer cell lines
Description: Cell culture and reagents. human lung cancer cell lines (A549, H1299, H460, Calu-1), human liver cancer cell lines (SMMC-7721, Huh-7, CL-1), human cervical carcinoma cell line (Hela), human breast cancer cell line (MDA-MB-231), human pancreatic cancer cell line (PANC-1) and human colon cancer cell lines (SW620, HT29, SW480) were purchased from the Shanghai Cell Collection (Shanghai, China). The above cell lines were cultured in 5% CO2 at 37° C. in corresponding complete growth medium formulated by the Shanghai Cell Collection, with 10% heat-inactivated fetal bovine serum (Biochrom, Germany), supplemented with 4 mM glutamine, 50 U/ml penicillin and […] streptomycin.
About 5×10^3 cells in 100 μl complete medium per well were plated in 96-well plates, incubated overnight, and then treated with IFN α-2b or rSIFN-co at concentrations of 100 μg/ml, 50 μg/ml, 25 μg/ml, 12.5 μg/ml, 6.25 μg/ml, 3.13 μg/ml, 1.56 μg/ml, 0.78 μg/ml, 0.39 μg/ml, and 0.20 μg/ml, respectively, for about 48 hr, at which time the cells were harvested for analysis. The cell viability rate was evaluated by SunBio Am-Blue assay kit (Cat #: SBAB8025, Shanghai SBO Medical Biotechnology Co., Ltd, Shanghai, China). […] After shaking the plates for 30 seconds, the absorbance for each well was read at both 570 nm and 595 nm by a Thermo Scientific Microplate Reader (Thermon Fisher Scientific, Inc., Lowell, Mass.). […]

SW620 tumor cells = assay: Cell viability, MTT assay, 1-6 days; assay type: cell-based, human; conditions: 10 μg/ml
Description: The cell survival rate was evaluated in a standard MTT assay [3-(4,5-dimethylthiazol-2-yl)-2,5-diphenyltetrazolium bromide assay, Sigma, St. Louis, Mo.). For the assay, about 20 μl MTT (at 4 mg/ml) was added to each well. The cells were incubated at 37° C. for 4 hr. After that, the supernatant of each well was drawn off carefully and then an equal volume (150 microliter) of dimethyl sulfoxide (DMSO) was added to each well and mixed thoroughly on a shaker for 15 min. The absorbance from the plates was read at 595 nm with a Thermo Scientific Microplate Reader (Thermo Fisher Scientific Inc., Lowell, Mass.). The relative cell viability was calculated as follows: Cell viability=(Treated group(OD595) minus blank(OD595))/(Control group(OD595) minus blank(OD595))×100%.

A549 xenograft tumors = assay: Tumor growth of A549 xenografts in nude mice; assay type: in vivo, BALB/c nude mice; conditions: 100 μg/100 μl per mouse intratumorally, every other day, 12 times; vs PBS
Description: This experiment was conducted in accordance to the National Institutes of Health Guide for the Care and Use of Laboratory Animals. Female BALB/c nude mice, 4-5 weeks old, were obtained from Shanghai Experimental Animal Center (Shanghai, China). About 5×10^6 A549 cells were subcutaneously injected into each mouse to establish xenograft tumors. […] The tumors were measured every three (3) days and the tumor volumes were calculated as follows: tumor volume (mm^3)=(length×width^2)/2. Data are shown as Mean±SD (n=8).

LRP6 = assay: qPCR of Wnt-related co-receptor mRNA; assay type: cell-based, human; conditions: 10 μg/ml, 24 hr
Description: The regulation of LRP6/FZD6 by rSIFN-co was investigated. This was conducted by qPCR as performed in Example 9. […] After 24 hr of treatment, total cellular mRNA was isolated using TRIZOL Reagent, and cDNA was subjected to qPCR using specific primers of LRP6 and FZD6. The primers used were: LRP6 sense primer: 5′-[…]-3′ (SEQ ID NO: 4) and antisense primer: 5′-[…]-3′ (SEQ ID NO: 5), and FZD6 sense primer: 5′-[…]-3′ (SEQ ID NO: 6) and antisense primer: 5′-[…]-3′ (SEQ ID NO: 7). Experiments were conducted in triplicate and normalized with the Mock control group. Results were recorded as relative mRNA level of either LRP6 or FZD6 relative to GAPDH.

colon cancer SW620 cells = assay: Cell migration assay across microporous membranes; assay type: cell-based, human; conditions: 10 μg/ml, 24 hr
Description: (§1) The cell migration assay was performed using 8 μm cell culture inserts in 24-well plates (Becton-Dickinson Biosciences, NJ, USA). Warm (37° C.) bicarbonate based culture medium without FBS was added to the interior of the inserts and to the bottoms of the wells, and were allowed to rehydrate for 2 hr in humidified tissue culture incubator at 37° C. in 5% CO2. After rehydration, the culture medium was carefully removed. […] In the lower compartment of the 24-well plates were placed 500 μl of complete medium with 10% FBS. After 24 hr at 37° C. under the regular culture conditions, the non-migrated cells in the upper part of the chamber membranes were removed with a cotton swab. The lower part of the culture inserts were fixed with 4% paraformaldehyde and stained with 2% crystal violet. The number of migrated cells on the opposite side of the chamber membranes from where the cells were placed was counted in each of the triplicate wells. Each experiment was repeated at least two times, each time with triplicate wells.

lung cancer A549 cells = assay: Cell migration assay across microporous membranes; assay type: cell-based, human; conditions: 10 μg/ml, 24 hr, untreated Mock about 30
Description: as §1

[1] = system: procaspase-3, cleaved caspase-3, procaspase-8, cleaved caspase-8, PARP; assay: Apoptosis-related molecular markers by Western Blot; assay type: cell-based, human; conditions: A549 and SW620 cells, 24 hr or 48 hr; interferons 10 mcg/ml
Source text: Thereafter, apoptosis-related molecular markers were monitored by Western Blot. The primary antibodies used were mouse monoclonal anti-beta-tubulin (1:2000, Cat #: CW0098A) and mouse monoclonal anti-GAPDH (1:2000, Cat #: CW0100A) (Kangwei Biotechnology, China); mouse monoclonal anti-PARP (1:1000, Cat #: sc-2007, Santa Cruz Biotechnology, Inc.); rabbit monoclonal anti-procaspase 3 (1:1000, Cat #: 9665), and rabbit polyclonal anti-cleaved caspase 3 (1:1000, Cat #: 9661) (Cell Signaling Technology, USA); goat polyclonal anti-procaspase 8 (1:1000, Cat #: sc-6136, Santa Cruz Biotechnology, Inc); rabbit monoclonal anti-cleaved caspase 8 (1:1000, Cat #: 9496) (Cell Signaling Technology, USA).

[2] = system: human hepatoma SMMC-7721 xenografts; assay: rSIFN-co on human hepatoma SMMC-7721 xenografts in nude mice; conditions: for TV(mm^3, mean ± SD) (D 0): day 0; for % Inhibition / T/C (%) / TV(mm^3, mean ± SD) (D 21): day 21
Description: The test article was used without dilution. It was stored at 4° C. until thawed for injection.
The animals used were 4-6 weeks old male BALB/cA nu/nu mice, weighing about 23±2 g, obtained from the Shanghai Institute of Materia Medica (Shanghai, P.R. China). […] Animals were housed 6 to a cage. They were ear-marked with ear hole punch identification. The room temperature was maintained at 25° C.±+1° C. Lighting was set at 12 hr on and 12 hr off. Food was provided ad libitum. City tap water, filtered with a 5 micrometer (μm) filter, was provided to the animals ad libitum via water bottles.
The test article was administered in a volume of 0.05 ml-0.15 ml per mouse per treatment, depending on the group to which the animal was assigned. […] Normal saline was injected in a volume of 0.15 ml per mouse, which was used as vehicle control.
Animals were assigned to treatment groups randomly. Initially, all animals were placed in one large animal cage. For assignment to the study, they were later separately housed, with 6 animals per cage per treatment group. Groups 1 and 2 are Control groups in which the animals were each administered the vehicle every other day after the first treatment. […] Tumor growth was monitored by measuring the length and width of each tumor twice a week during the course of the study. Each animal was also weighed twice a week during the course of the study.
Before commencement of this study, the xenografts were passaged twice in nude mice. Under sterile conditions, well-grown tumors were cut into 1.5 mm^3 fragments and one such fragment was injected by trocar needle into the right flank of each study animal. […] Individual tumor size (length and width) was measured twice per week with microcalipers. Tumor volume (V) was calculated using the formula: V=(length×width^2)/2. Individual relative tumor volume (RTV) was calculated using the formula: RTV=Vt/V0, where Vt is the tumor volume on the day of measurement and V0 is the tumor volume on the day of first treatment. Therapeutic effect of the test article or control article was expressed in terms of T/C (%), using the formula: T/C (%)=(mean RTV of the treated group/mean RTV of the control group)×100%; and in terms of % Inhibition, using the formula: % Inhibition=100%−T/C %.

[3] = 0.05 mg/mouse i.t. every other day
[4] = 0.10 mg/mouse i.t. every other day
[5] = 0.15 mg/mouse i.t. every other day

B1: rSIFN-co: Recombinant super-compound interferon; amino acid sequence SEQ ID NO: 1 (same as INFERGEN), encoded by novel nucleotide sequence SEQ ID NO: 2 (protein)
chain: MCDLPQTHSLGNRRALILLAQMRRISPFSCLKDRHDFGFPQEEFDGNQFQKAQAISVLHEMIQQTFNLFSTKDSSAAWDESLLEKFYTELYQQLNDLEACVIQEVGVEETPLMNVDSILAVKKYFQRITLYLTEKKYSPCAWEVVRAEIMRSFSLSTNLQERLRRKE
modifications: Amino acid sequence of recombinant interferon
Different cancer cells
  cell viability at 100 mcg/ml: cell viability could not be detected
SW620 tumor cells
  cell viability over time (MTT): strongly decreased cell viability of SW620 cells in a time-dependent manner
A549 xenograft tumors
  inhibition of tumor growth (tumor volume): almost completely inhibit growth of established tumors
LRP6; A549 cells
  relative expression of the LRP6 mRNA: significant reduction
LRP6; HT-29 cells
  relative expression of the LRP6 mRNA: significant reduction
LRP6; SW620 cells
  relative expression of the LRP6 mRNA: significant reduction
Colon cancer SW620 cells
  tumor cell migration: Significant inhibition
Lung cancer A549 cells
  mean number of migrating cells per field: about 10 cells per field
[1]
  level of cleaved caspase-3 and cleaved caspase-8: neither of the interferons, IFN alpha-2b nor rSIFN-co, caused any reduction in the level of procaspase-3 or procaspase-8 or PARP, or induced any enhancement
  level of procaspase-3, procaspase-8 and PARP: neither of the interferons, IFN alpha-2b nor rSIFN-co, caused any reduction
[2]; [3]
  TV(mm^3, mean ± SD) (D 0): 124 ± 26 mm^3
  % Inhibition: 48.01%
  T/C (%): 51.99%
  TV(mm^3, mean ± SD) (D 21): 592 ± 139 mm^3
[2]; [4]
  TV(mm^3, mean ± SD) (D 0): 124 ± 15 mm^3
  % Inhibition: 52.20%
  T/C (%): 47.80%
  TV(mm^3, mean ± SD) (D 21): 573 ± 287 mm^3
[2]; [5]
  TV(mm^3, mean ± SD) (D 0): 123 ± 20 mm^3
  % Inhibition: 56.80%
  T/C (%): 43.20%
  TV(mm^3, mean ± SD) (D 21): 505 ± 226 mm^3
